The values below come from article PMC8784342, “Investigation of sugar binding kinetics of the E. coli sugar/H^+ symporter XylE using solid-supported membrane-based electrophysiology” (The Journal of Biological Chemistry, 2021).

Several values for one entry are separate records, joined by “and”; a condition that tells them apart may be missing. Equal values may be shown once.

Holding throughout (assay type): biochemical, Escherichia coli
Substrate in series [1]: OC[C@H]1O[C@@H](O[C@@H]2[C@@H](CO)O[C@](O)(CO)[C@H]2O)[C@H](O)[C@@H](O)[C@H]1O
The experiment in a line: SSM-based electrophysiology, proteoliposomes with wt LacY. The protocol:
(§1) Reconstitution of purified proteins (2–20 mg/ml) was carried out with E. coli phospholipids (Avanti Polar Lipids, E. coli polar lipid extract). Preformed liposomes (0.2–2 ml, 10 mg/ml) were dissolved in 1% (w/v) n-octyl-β-D-glucoside, and the protein suspension was mixed on ice to a concentration of 0.2 mg protein/mg lipid (LPR 5).
Wt XylE, wt FucP, and the mutant proteins were reconstituted using overnight incubation in 400 mg/ml BioBeads (SM-2 Adsorbent Media, Bio-Rad) at 4 °C. After reconstitution, the samples were diluted to 2.5 mg/ml lipid concentration, frozen in liquid nitrogen, and stored at −80 °C. For wt LacY and mutant proteins, this procedure was not successful. […]
For measurements, a single solution exchange configuration ([23]) was employed that consisted in three phases of 0.5 s duration each: Flow of nonactivating solution (NA), activating solution (A), and nonactivating solution (NA). […] When pH dependence is determined, pH of NA and A solutions during one experiment are kept constant. […]
(§2) Instruments with different time resolution were used as required. […] Currents were recorded throughout the entire time and amplified with a current amplifier set to a gain of […] and a rise time of 10 ms (low time-resolution set up) or 3 ms (high time-resolution set up).
All NA solutions were buffered in 100 mM KPi at a given pH value. […] Therefore, only transient currents were recorded. […]

Substrate in series [2]: OC1OC[C@@H](O)[C@@H](O)[C@@H]1O
The series can be described thus: SSM-based electrophysiology, proteoliposomes with wt FucP. The protocol: as §1
(§3) Wt XylE, wt FucP, and the mutant proteins were reconstituted using overnight incubation in 400 mg/ml BioBeads (SM-2 Adsorbent Media, Bio-Rad) at 4 °C. After reconstitution, the samples were diluted to 2.5 mg/ml lipid concentration, frozen in liquid nitrogen, and stored at −80 °C. For wt LacY and mutant proteins, this procedure was not successful. We, therefore, applied the previously established n-octyl-β-D-glucoside dilution method (1:100) ([69]).
(§4) SSM measurements were performed as described ([20], [23]). After thawing the sample and sonication in a water bath, 30 μl of proteoliposomes (2.5 mg/ml lipid at LPR 5) was allowed to adsorb for 1 to 2 h to an octadecanethiol/phosphatidylcholine hybrid bilayer on a gold surface (the sensor).
(§5) For measurements, a single solution exchange configuration ([23]) was employed that consisted in three phases of 0.5 s duration each: Flow of nonactivating solution (NA), activating solution (A), and nonactivating solution (NA). Only the activating solution contained the sugar. When pH dependence is determined, pH of NA and A solutions during one experiment are kept constant. Between experiments using different pH values, the sensor was incubated at the new pH for 3 min to equilibrate the intraliposomal pH.
as §2
(§6) All NA solutions were buffered in 100 mM KPi at a given pH value. […] Sugar concentration jumps initiated sugar-proton symport, and charge transfer was measured by capacitive coupling. Therefore, only transient currents were recorded. […]

Substrate in series [3]: OC[C@@H]1OC(O)[C@@H](O)[C@H](O)[C@@H]1O
Described as above. The following applies: other: pH 7.6, minor substrate, peak currents, low time-resolution set up. The procedure:
as §1, §3, §4, §5, §2, §6

[4] abbreviates: other: pH 7.6, minor substrate, peak currents, low time-resolution set up.
The mark [5] stands for this setting: other: pH 7.6, peak currents, Hill equation.

B1: wt LacY (Escherichia coli K-12) (protein)
chain: MYYLKNTNFWMFGLFFFFYFFIMGAYFPFFPIWLHDINHISKSDTGIIFAAISLFSLLFQPLFGLLSDKLGLRKYLLWIITGMLVMFAPFFIFIFGPLLQYNILVGSIVGGIYLGFCFNAGAPAVEAFIEKVSRRSNFEFGRARMFGCVGWALCASIVGIMFTINNQFVFWLGSGCALILAVLLFFAKTDAPSSATVANAVGANHSAFSLKLALELFRQPKLWFLSLYVIGVSCTYDVFDQQFANFFTSFFATGEQGTRVFGYVTTMGELLNASIMFFAPLIINRIGGKNALLLAGTIMSVRIIGSSFATSALEVVILKTLHMFEVPFLLVGCFKYITSQFEVRFSATIYLVCFCFFKQLAMIFMSVLAGNMYESIGFQGAYLVLGLVALGFTLISVFTLSGPGPLSLLRRQVNEVA
notes: made in house; host or cells: E. coli XL1-Blue
For orientation: Km means the substrate concentration at which the rate is half of its maximum. In the case of B1, the Km in series [1] (setting [4]) is 2.27 ± 0.54 mM and 2.3 ± 0.6 mM. Moreover, the K0.5 in series [1] (setting [5]) was 6.94 ± 3.58 mM.

B2: wt FucP (Escherichia coli K-12) (protein)
chain: MGNTSIQTQSYRAVDKDAGQSRSYIIPFALLCSLFFLWAVANNLNDILLPQFQQAFTLTNFQAGLIQSAFYFGYFIIPIPAGILMKKLSYKAGIITGLFLYALGAALFWPAAEIMNYTLFLVGLFIIAAGLGCLETAANPFVTVLGPESSGHFRLNLAQTFNSFGAIIAVVFGQSLILSNVPHQSQDVLDKMSPEQLSAYKHSLVLSVQTPYMIIVAIVLLVALLIMLTKFPALQSDNHSDAKQGSFSASLSRLARIRHWRWAVLAQFCYVGAQTACWSYLIRYAVEEIPGMTAGFAANYLTGTMVCFFIGRFTGTWLISRFAPHKVLAAYALIAMALCLISAFAGGHVGLIALTLCSAFMSIQYPTIFSLGIKNLGQDTKYGSSFIVMTIIGGGIVTPVMGFVSDAAGNIPTAELIPALCFAVIFIFARFRSQTATN
notes: made in house; host or cells: E. coli BL21 DE3
B2: the Michaelis-Menten constant (Km) in series [2] (setting [4]) is recorded as 12.2 ± 2.8 mM; in series [3], 7.4 ± 1.3 mM. Besides, the K0.5 in series [2] (setting [5]) was found to be 80 ± 40 mM.
